Experimental data as given in patent US20240132589A1 (ONCORESPONSE, published 2024).

B1: B2H1-11 (antibody, V domains shown)
VH: QVQLEESGGRVVQPGRSLRLSCAASGFSLSTYAMSWVRQAPGKGLEWIGWIYNDGSTYYAAWAKGRFTISKDTSKTTVFLQMNSLKPDDTATYFCAREGDYIGYFNIWGQGTLVTVSS
VL: DIQMTQSPSSLSASVGDRVTITCQASQSIGSNLAWYQLKPGQRPKLLIYAAATLASGVPSRFKGSGSGTDFTLTISSLQSEDAATYYCQSYVSGSSDVAFGGGTEVVVK
notes: Humanized variant, human IgG1 / kappa
B2: B2H1-52 (antibody, V domains shown)
VH: EVQLLESGGGLVQPGTSLTLSCAASGFSLSTYAMSWVRQAPGKGLEWIGWIYNDGSTYYAAWAKGRFTISKDTSKTTLYLQITSLRAEDTATYFCAREGDYIGYFNIWGQGTLVTVSS
VL: DVVMTQSPSSVSASLGDRVTITCQASQSIGSNLAWYQQKPGQAPKLLIYAAATLASGVPSRFKGSGSGTDFTLTITSLQPADFATYYCQSYVSGSSDVAFGGGTKVEIK
notes: as for B1
B3: B2Comp1 (antibody, human IgG4 S228P, lambda, V domains shown)
VH: EVQLQQWGAGLLKPSETLSLTCAVYGGSFSGYYWSWIRQPPGKGLEWIGEINHAGSTNYNPSLKSRVTISVDTSKNQFSLKLSSVTAADTAVYYCARLPTRWVTTRYFDLWGRGTLVTVSS
VL: ESVLTQPPSVSGAPGQRVTISCTGSSSNIGAGYDVHWYQQLPGTAPKLLIYGDSNRPSGVPDRFSVSKSGASASLAITGLQAEDEADYYCQSFDNSLSAYVFGGGTQLTVLG
notes: Benchmark antibody, IgG4 heavy chain and lambda light chain; biotin-conjugated when used as the labelled antibody in binning; also called MK-4830 (as designated in WO 2021/138079 A1); αLILRB2B2Comp1
B4: B2H1-35 (antibody, V domains shown)
VH: QVQLVESGGRVVQPGTPLRLSCAASGFSLSTYAMSWVRQAPGKGLEWVAWIYNDGSTYYAAWAKGRFTISRDTSKNTLYLQTNSLKPDDTAVYYCAREGDYIGYFNIWGQGTLVTVSS
VL: DVVMTQTPSSVSAALGGTVTIKCQASQSIGSNLAWYQLKPGQRPKLLIYAAATLASGGSSRFKGSGSGTDFTLTISSLEPADAATYYCQSYVSGSSDVAFGGGTEVVVK
notes: as for B1

Experiments:
Assay in all cases: flow cytometry, transiently transfected HEK293-6E cells
[1] = target: T1, Human LILRB3 on transiently transfected HEK293-6E cells (human, UniProt O75022 24-631)
T1 construct: whole, on cells; also called hLILRB3
Protocol: (§1) To determine that the anti-LILRB2 antibodies specifically bind to LILRB2 and not other LILRB and LILRA family members, a cross-reactivity assay was performed. Cross-reactivity of the LILRB2 antibodies to other LILRB proteins was assessed by antibody binding to transiently transfected HEK293-6E cells, measured by flow cytometry. Binding was evaluated to HEK293-6E cells transiently transfected with human LILRB-1, -2, -3, -4, and 5 plasmids (Origene, Nos. RC219949, RC217935, RC211228, RC220932, RC206516) or to cells transiently transfected with human LILRA-1, -2, -4, -5, and -6 plasmids (Origene, Nos. RC210808, RC205626, RC220452, RC212310 RC212965). […] Murine primary antibodies to LILRA and LILRB targets and corresponding isotype controls were used to confirm specific binding of all targets tested (R&D Systems) while an AF647 F(ab′)₂ fragment goat anti-mouse antibody (Jackson ImmunoResearch, No. 115-606-062) was used for the detection of bound positive control antibodies. No binding of B2A-IgG4 or B2A-IgG1 to LILRB-1, -3, -4, or -5 was observed, and no binding of either antibody to LILRA-1, -2, -4, -5, or -6 was observed, confirming specificity of these antibodies.
(§2) Select humanized variant antibodies were tested for their ability to bind other LILRB or LILRA family members, using the method and commercially available positive control antibodies of Example 5.

[2] = target: T2, Human LILRB5 on transiently transfected HEK293-6E cells (human, UniProt O75023 24-590)
T2 construct: whole, on cells; also called hLILRB5
Protocol: as §1, §2

[3] = target: T3, Human LILRA4 on transiently transfected HEK293-6E cells (human, UniProt P59901 24-499)
T3 construct: whole, on cells; also called hLILRA4
Protocol: as §1, §2

[4] = target: T4, Human LILRA5 on transiently transfected HEK293-6E cells (human, UniProt A6NI73 42-299)
T4 construct: whole, on cells; also called hLILRA5
Protocol: as §1, §2

[5] = target: T5, Human LILRA6 on transiently transfected HEK293-6E cells (human, UniProt Q6PI73 24-481)
T5 construct: whole, on cells; also called hLILRA6
Protocol: as §1, §2

[6] = target: T6, Human LILRB2 on transiently transfected HEK293-6E cells (human, UniProt Q8N423 22-597)
T6 construct: whole, on cells; also called hLILRB2
Protocol: as §1, §2

[7] = target: T7, Human LILRB1 on transiently transfected HEK293-6E cells (human, UniProt Q8NHL6 24-650)
T7 construct: whole, on cells; also called hLILRB1
Protocol: as §1, §2

[8] = target: T8, Human LILRA1 on transiently transfected HEK293-6E cells (human, UniProt O75019 17-489)
T8 construct: whole, on cells; also called hLILRA1
Protocol: as §1, §2

[9] = target: T9, Human LILRA2 on transiently transfected HEK293-6E cells (human, UniProt Q8N149 24-483)
T9 construct: whole, on cells; also called hLILRA2
Protocol: as §1, §2

[10] = target: T10, Human LILRB4 on transiently transfected HEK293-6E cells (human, UniProt Q8NHJ6 22-448)
T10 construct: whole, on cells; also called hLILRB4
Protocol: as §1, §2

[11] = target: T1, Human LILRB3 on transiently transfected …; remark: listed apart in the source
[12] = target: T2, Human LILRB5 on transiently transfected …; remark: listed apart in the source
[13] = target: T3, Human LILRA4 on transiently transfected …; remark: listed apart in the source
[14] = target: T4, Human LILRA5 on transiently transfected …; remark: listed apart in the source
[15] = target: T5, Human LILRA6 on transiently transfected …; remark: listed apart in the source
[16] = target: T7, Human LILRB1 on transiently transfected …; remark: listed apart in the source
[17] = target: T8, Human LILRA1 on transiently transfected …; remark: listed apart in the source
[18] = target: T9, Human LILRA2 on transiently transfected …; remark: listed apart in the source
[19] = target: T10, Human LILRB4 on transiently transfected …; remark: listed apart in the source
[20] = target: T6, Human LILRB2 on transiently transfected …; remark: listed apart in the source
Protocol: as §1

T9 sequence (Q8N149 24-483): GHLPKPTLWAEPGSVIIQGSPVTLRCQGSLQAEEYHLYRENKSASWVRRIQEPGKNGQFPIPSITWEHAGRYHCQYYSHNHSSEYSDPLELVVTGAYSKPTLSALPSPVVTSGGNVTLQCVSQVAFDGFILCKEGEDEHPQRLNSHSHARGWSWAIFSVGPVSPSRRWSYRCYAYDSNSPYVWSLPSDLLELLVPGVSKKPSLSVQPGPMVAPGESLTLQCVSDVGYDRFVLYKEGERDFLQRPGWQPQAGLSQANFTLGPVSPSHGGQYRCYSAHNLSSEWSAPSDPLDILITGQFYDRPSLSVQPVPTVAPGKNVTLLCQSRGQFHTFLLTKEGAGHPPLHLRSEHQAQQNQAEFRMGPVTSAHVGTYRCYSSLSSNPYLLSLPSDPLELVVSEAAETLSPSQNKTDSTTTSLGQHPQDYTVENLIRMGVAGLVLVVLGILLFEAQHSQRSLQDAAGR
T5 sequence (Q6PI73 24-481): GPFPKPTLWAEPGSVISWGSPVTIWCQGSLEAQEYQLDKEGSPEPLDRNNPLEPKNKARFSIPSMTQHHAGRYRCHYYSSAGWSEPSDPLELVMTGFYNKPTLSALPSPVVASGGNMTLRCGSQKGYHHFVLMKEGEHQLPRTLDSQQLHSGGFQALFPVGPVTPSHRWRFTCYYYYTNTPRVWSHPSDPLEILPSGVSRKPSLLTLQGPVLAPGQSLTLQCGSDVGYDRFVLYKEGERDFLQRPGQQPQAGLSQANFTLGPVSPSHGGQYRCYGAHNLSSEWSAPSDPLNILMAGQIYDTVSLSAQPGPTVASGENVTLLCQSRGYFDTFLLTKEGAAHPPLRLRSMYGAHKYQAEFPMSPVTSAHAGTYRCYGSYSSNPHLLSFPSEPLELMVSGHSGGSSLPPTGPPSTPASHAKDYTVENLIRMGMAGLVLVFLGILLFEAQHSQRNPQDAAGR
T6 sequence (Q8N423 22-597): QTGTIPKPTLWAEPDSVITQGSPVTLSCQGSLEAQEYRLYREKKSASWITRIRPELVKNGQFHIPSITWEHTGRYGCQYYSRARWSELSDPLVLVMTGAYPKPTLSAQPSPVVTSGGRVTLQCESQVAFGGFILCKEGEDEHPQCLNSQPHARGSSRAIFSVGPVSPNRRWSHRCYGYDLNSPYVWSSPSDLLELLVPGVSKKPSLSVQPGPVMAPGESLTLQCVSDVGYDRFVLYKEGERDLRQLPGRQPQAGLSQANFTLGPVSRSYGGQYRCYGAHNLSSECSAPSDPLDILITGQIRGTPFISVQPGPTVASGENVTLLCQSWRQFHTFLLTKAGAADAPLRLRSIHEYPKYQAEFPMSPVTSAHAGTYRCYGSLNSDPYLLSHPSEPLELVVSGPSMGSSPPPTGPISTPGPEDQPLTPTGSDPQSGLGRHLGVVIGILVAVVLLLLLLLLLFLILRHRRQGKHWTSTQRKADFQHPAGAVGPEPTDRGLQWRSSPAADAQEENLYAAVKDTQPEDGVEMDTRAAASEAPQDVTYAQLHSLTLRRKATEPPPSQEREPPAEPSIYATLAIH
T7 sequence (Q8NHL6 24-650): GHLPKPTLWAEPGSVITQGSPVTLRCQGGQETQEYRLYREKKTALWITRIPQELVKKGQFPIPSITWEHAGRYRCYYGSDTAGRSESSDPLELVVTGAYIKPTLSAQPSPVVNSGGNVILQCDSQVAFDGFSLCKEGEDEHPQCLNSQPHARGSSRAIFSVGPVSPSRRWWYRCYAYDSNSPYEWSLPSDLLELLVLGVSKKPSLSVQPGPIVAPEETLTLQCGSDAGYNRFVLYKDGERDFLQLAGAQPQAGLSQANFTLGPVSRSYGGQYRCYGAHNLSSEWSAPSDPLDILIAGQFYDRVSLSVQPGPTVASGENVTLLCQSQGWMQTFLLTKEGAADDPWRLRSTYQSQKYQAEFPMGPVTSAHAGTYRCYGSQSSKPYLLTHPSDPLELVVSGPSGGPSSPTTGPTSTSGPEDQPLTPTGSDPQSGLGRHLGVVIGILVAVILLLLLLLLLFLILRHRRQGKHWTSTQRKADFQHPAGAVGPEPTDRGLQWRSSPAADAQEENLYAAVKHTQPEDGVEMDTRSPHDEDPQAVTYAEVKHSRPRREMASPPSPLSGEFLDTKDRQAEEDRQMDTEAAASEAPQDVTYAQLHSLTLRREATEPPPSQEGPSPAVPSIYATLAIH
T8 sequence (O75019 17-489): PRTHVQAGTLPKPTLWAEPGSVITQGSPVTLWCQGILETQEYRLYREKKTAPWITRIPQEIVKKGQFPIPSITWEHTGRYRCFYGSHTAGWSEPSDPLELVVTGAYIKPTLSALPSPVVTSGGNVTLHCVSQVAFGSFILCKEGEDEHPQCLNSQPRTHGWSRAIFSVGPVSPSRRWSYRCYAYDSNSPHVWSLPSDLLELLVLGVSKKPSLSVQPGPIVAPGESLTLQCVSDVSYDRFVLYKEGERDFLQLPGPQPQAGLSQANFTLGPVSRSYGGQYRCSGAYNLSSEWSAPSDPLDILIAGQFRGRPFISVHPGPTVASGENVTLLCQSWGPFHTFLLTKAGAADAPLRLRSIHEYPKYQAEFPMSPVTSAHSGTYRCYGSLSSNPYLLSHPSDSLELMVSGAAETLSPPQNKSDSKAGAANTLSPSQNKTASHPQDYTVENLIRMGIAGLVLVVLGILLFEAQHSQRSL
T3 sequence (P59901 24-499): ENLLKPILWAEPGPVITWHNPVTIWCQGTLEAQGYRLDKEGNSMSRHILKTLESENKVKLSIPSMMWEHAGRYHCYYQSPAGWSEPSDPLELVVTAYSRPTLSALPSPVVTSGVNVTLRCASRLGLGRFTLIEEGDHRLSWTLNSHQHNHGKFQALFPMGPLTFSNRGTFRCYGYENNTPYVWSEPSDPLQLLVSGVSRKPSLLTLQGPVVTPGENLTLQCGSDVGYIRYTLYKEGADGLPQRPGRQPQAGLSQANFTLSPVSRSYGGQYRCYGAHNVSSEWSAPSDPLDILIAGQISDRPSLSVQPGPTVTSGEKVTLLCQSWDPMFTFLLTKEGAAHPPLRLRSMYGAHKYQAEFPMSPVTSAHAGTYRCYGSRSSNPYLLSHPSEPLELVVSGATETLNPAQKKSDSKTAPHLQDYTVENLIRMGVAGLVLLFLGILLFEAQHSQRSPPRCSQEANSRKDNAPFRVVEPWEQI
T2 sequence (O75023 24-590): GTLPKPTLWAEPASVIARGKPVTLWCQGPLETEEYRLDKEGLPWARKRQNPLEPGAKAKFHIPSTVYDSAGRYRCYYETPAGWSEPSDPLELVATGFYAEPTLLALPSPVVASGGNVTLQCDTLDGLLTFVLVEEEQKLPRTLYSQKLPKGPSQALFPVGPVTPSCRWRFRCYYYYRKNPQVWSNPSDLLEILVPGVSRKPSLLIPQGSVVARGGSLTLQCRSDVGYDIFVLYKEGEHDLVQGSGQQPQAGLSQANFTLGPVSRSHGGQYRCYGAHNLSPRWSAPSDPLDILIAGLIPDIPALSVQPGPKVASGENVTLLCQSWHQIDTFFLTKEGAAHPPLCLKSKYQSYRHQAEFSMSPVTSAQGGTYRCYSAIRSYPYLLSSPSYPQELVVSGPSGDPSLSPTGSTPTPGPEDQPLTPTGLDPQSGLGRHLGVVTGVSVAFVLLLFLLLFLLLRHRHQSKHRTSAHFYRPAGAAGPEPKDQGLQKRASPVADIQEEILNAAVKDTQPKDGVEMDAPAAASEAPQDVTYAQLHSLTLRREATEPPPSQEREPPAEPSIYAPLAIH
T4 sequence (A6NI73 42-299): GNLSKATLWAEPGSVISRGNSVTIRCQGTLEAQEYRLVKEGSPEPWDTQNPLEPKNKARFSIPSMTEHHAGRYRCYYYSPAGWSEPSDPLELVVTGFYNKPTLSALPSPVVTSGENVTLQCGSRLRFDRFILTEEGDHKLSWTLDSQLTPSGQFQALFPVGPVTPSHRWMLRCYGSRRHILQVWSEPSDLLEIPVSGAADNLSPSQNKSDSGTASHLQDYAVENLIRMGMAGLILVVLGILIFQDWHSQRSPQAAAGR

Binder | Bmax (MFI) [1] | Bmax (MFI) [2] | BMAX [gMFI] [3] | Bmax (MFI) [4] | Bmax (MFI) [5] | Bmax (MFI) [6] | Bmax (MFI) [7] | Bmax (MFI) [8] | Bmax (MFI) [9] | Bmax (MFI) [10] | binding result [11] | binding result [12] | binding result [13] | binding result [14] | binding result [15] | binding result [16] | binding result [17] | binding result [18] | binding result [19] | MFI [20]
B1 | 142 MFI | 147 MFI | 108 gMFI | 124 MFI | 210 MFI | 11000 MFI | 39.8 MFI | 776 MFI | 36.1 MFI | 38 MFI | no binding | no binding | no binding | no binding | no binding | no binding | no binding | no binding | no binding | –
B2 | 159 MFI | 153 MFI | 106 gMFI | 123 MFI | 219 MFI | 10300 MFI | 42.3 MFI | 855 MFI | 36.1 MFI | 40.5 MFI | no binding | no binding | no binding | no binding | no binding | no binding | no binding | no binding | no binding | –
B3 | – | – | – | – | – | – | – | – | – | – | – | – | – | – | – | – | – | – | – | 9630 MFI
B4 | 146 MFI | 145 MFI | 103 gMFI | 122 MFI | 202 MFI | 10300 MFI | 41.3 MFI | 766 MFI | 33.6 MFI | 38.5 MFI | no binding | no binding | no binding | no binding | no binding | no binding | no binding | no binding | no binding | –
